Test results taken from patent US20090074782A1 (ONCOMED PHARMACEUTICALS, published 2009).

B3: RSPO1-CD4™ (ligand)
chain: SRGIKGKRQRRISAEGSQACAKGCELCSEVNGCLKCSPKLFILLERNDIRQVGVCLPSCPPGYFDARNPDMNKCIKCKIEHCEACFSHNFCTKCKEGLYLHKGRCYPACPEGSSAANGTMECSSPAQCEMSEWSPWGPCSKKQQLCGFRRGSEERTRRVLHAPVGDHAACSDTKETRRCTVRRVPCPEGQKRRKGGQGRRENANRNLARKESKEAGAGSRRRKGQQQQQQQGTVGPLTSAGPA
notes: domain: transmembrane domain; Transiently expressed on HEK 293 cells together with GFP; also called cell-surface RSPO1; RSPO1-CD4TM; not shown: transmembrane domain of CD4

Legend:
RSPO1-CD4™ = target: B3; assay: FACS, Fc fusion on HEK 293 cells transfected with RSPO1-CD4™ and GFP
Description: (§1) To determine the mechanism by which RSPO1 activates beta-catenin signaling, FACS analysis was used to assess binding between RSPO1 and LGR5. In certain embodiments, binding between soluble LGR5 and cell-surface RSPO1 was determined. A cell-surface RSPO1 protein was generated by ligating full-length human RSPO1 to the transmembrane domain of CD4 using standard recombinant DNA techniques (RSPO1-CD4™). HEK 293 cells were transiently transfected RSPO1-CD4™ and GFP. After 48 hours, cells were suspended in ice cold PBS containing 2% FCS and then incubated on ice in the presence of LGR5-Fc, LRP6-ECD-Fc (containing the extracellular domain of human LRP6 fused to an Fc domain), LRP6E1-2-Fc (containing amino acids 1-629 of human LRP6 fused to an Fc domain), or various FZD-Fc constructs, including FZD1-10. […] Only a weak interaction between RSPO1 and the WNT co-receptor LRP6 was detected.

FLAG-LGR5-CD4™ = target: T1, FLAG-LGR5-CD4™ (human, UniProt O75473 22-564); assay: FACS, Fc fusion on HEK 293 cells transfected with FLAG-LGR5-CD4™ and GFP, with heparin
T1 construct: domain: transmembrane domain; Transiently expressed on HEK 293 cells together with GFP; also called variant cell-surface LGR5 protein; cell-associated LGR5 construct; not shown: N-terminal FLAG tag; transmembrane domain of CD4
T1 sequence: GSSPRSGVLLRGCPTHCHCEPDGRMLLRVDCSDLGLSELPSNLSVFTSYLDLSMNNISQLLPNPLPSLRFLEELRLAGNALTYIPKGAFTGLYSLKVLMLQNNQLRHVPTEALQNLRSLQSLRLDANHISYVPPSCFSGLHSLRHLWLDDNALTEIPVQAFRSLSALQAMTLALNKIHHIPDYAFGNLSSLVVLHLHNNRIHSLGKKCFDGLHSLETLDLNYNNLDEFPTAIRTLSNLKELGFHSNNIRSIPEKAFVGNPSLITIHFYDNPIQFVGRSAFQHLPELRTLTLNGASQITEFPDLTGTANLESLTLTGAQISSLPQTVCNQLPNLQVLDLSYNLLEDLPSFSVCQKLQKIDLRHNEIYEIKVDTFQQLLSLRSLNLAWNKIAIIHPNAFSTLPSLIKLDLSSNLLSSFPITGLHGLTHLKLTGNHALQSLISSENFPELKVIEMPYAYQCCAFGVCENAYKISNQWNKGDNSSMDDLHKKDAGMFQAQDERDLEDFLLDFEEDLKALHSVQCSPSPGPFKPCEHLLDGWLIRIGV
Description: In certain embodiments, binding between soluble RSPO1 and cell-surface LGR5 was determined. A variant cell-surface LGR5 protein was generated by ligating amino acids 22-564 of LGR5 to an N-terminal FLAG tag and to the transmembrane domain of CD4 using standard recombinant DNA techniques (FLAG-LGR5-CD4™). HEK 293 cells were transiently transfected with FLAG-LGR5-CD4™ and GFP. After 48 hours, cells were suspended in ice cold PBS containing 2% FCS and heparin and then incubated on ice in the presence of RSPO1-Fc, FZD8-Fc, or a FLAG antibody as a positive control.

FZD2-Fc = FZD2-Fc (UniProt Q14332 24-159); assay: FACS, Fc fusion on HEK 293 cells transfected with RSPO1-CD4™ and GFP
Description: as §1

FZD7-Fc = FZD7-Fc (UniProt O75084 33-170); assay: as above
Description: as §1

FZD1-Fc = target: T2, FZD1-Fc (UniProt Q9UP38 87-237); assay: as above
T2 construct: One of the 'various FZD-Fc constructs, including FZD1-10'; not shown: Fc
Description: as §1

B1: FZD8-Fc (Fc fusion, UniProt Q9H461 28-158, looked up)
chain: ASAKELACQEITVPLCKGIGYNYTYMPNQFNHDTQDEAGLEVHQFWPLVEIQCSPDLKFFLCSMYTPICLEDYKKPLPPCRSVCERAKAGCAPLMRQYGFAWPDRMRCDRLPEQGNPDTLCMDYNRTDLTT
notes: One of the 'various FZD-Fc constructs, including FZD1-10'; also used against FLAG-LGR5-CD4™ cells; also called soluble FZD8; not shown: Fc
B1: no binding (RSPO1-CD4™); no binding (FLAG-LGR5-CD4™).

B2: FZD10-Fc (Fc fusion, UniProt Q9ULW2 21-154, looked up)
chain: ISSMDMERPGDGKCQPIEIPMCKDIGYNMTRMPNLMGHENQREAAIQLHEFAPLVEYGCHGHLRFFLCSLYAPMCTEQVSTPIPACRVMCEQARLKCSPIMEQFNFKWPDSLDCRKLPNKNDPNYLCMEAPNNG
notes: One of the 'various FZD-Fc constructs, including FZD1-10'; also called soluble FZD10; not shown: Fc
B2: no binding (RSPO1-CD4™).

B3: no binding (FZD2-Fc); no binding (FZD7-Fc); no binding (FZD1-Fc).

B4: FZD4-Fc (Fc fusion, UniProt Q9ULV1 40-170, looked up)
chain: EEERRCDPIRISMCQNLGYNVTKMPNLVGHELQTDAELQLTTFTPLIQYGCSSQLQFFLCSVYVPMCTEKINIPIGPCGGMCLSVKRRCEPVLKEFGFAWPESLNCSKFPPQNDHNHMCMEGPGDEEVPLP
notes: One of the 'various FZD-Fc constructs, including FZD1-10'; not shown: Fc
B4: no binding (RSPO1-CD4™).

B5: FZD5-Fc (Fc fusion, UniProt Q13467 27-157, looked up)
chain: ASKAPVCQEITVPMCRGIGYNLTHMPNQFNHDTQDEAGLEVHQFWPLVEIQCSPDLRFFLCSMYTPICLPDYHKPLPPCRSVCERAKAGCSPLMRQYGFAWPERMSCDRLPVLGRDAEVLCMDYNRSEATT
notes: as for B4
B5: no binding (RSPO1-CD4™).

B6: FZD6-Fc (Fc fusion, UniProt O60353 19-146, looked up)
chain: HSLFTCEPITVPRCMKMAYNMTFFPNLMGHYDQSIAAVEMEHFLPLANLECSPNIETFLCKAFVPTCIEQIHVVPPCRKLCEKVYSDCKKLIDTFGIRWPEELECDRLQYCDETVPVTFDPHTEFLGP
notes: as for B4
B6: no binding (RSPO1-CD4™).

B7: FZD3-Fc (Fc fusion, UniProt Q9NPG1 23-143, looked up)
chain: HSLFSCEPITLRMCQDLPYNTTFMPNLLNHYDQQTAALAMEPFHPMVNLDCSRDFRPFLCALYAPICMEYGRVTLPCRRLCQRAYSECSKLMEMFGVPWPEDMECSRFPDCDEPYPRLVDL
notes: as for B4
B7: no binding (RSPO1-CD4™).

B8: FZD9-Fc (Fc fusion, UniProt O00144 23-159, looked up)
chain: LEIGRFDPERGRGAAPCQAVEIPMCRGIGYNLTRMPNLLGHTSQGEAAAELAEFAPLVQYGCHSHLRFFLCSLYAPMCTDQVSTPIPACRPMCEQARLRCAPIMEQFNFGWPDSLDCARLPTRNDPHALCMEAPENA
notes: as for B4
B8: no binding (RSPO1-CD4™).
